# Test results taken from patent US20100184663A1 (UNIVERSITY OF UTAH RESEARCH FOUNDATION, published 2010).
# Bridge positions count the residues as written; N and C are the ends. Square brackets hold non-standard residues; d marks the D form. Ends that are not written are not given here. I, II: the chains in the order shown.
# Tests used:
# Test in all cases: cell-based or functional assay
# HIV-1 gp41 (JRFL strain) = HIV-1 gp41 (JRFL strain) (HIV-1 JRFL)
# HIV-1 gp41 (HXB2 strain) [1] = molecular target: T1, HIV-1 gp41 (HXB2 strain) (HIV-1 HXB2, UniProt P04578 512-856)
# HIV-1 gp41 (HXB2 strain) [2] = molecular target: T1, HIV-1 gp41 (HXB2 strain); remark: listed apart in the source
Binder,"IC50 (JRFL), pseudovirion entry (HIV-1 gp41 (JRFL strain)) [nM]","IC50 (HXB2), pseudovirion entry (HIV-1 gp41 (HXB2 strain) [1]) [nM]","IC50 (HXB2), single-cycle viral infectivity assay (HIV-1 gp41 (HXB2 strain) [2]) [nM]"
"Ac-G[dA][dC][dD][dY][dP][dE][dW][dQ][dW][dL][dC][dA][dA]G[dK]-NH2 (disulfide 3-12 (inferred); also: PEG4 attached at the C-terminus, order with amide not given here) [PIE7-GK-PEG4]",13100,351,–
G[dA][dC][dD][dY][dP][dE][dW][dQ][dW][dL][dC][dA][dA]G[dK] (disulfide 3-12 (inferred); also: dimer joined C- to C-terminus by PEG5 spacer on C-terminal Lys) [C5C(PIE7-GK)2],203,0.355,–
Ac-G[dA][dC][dD][dY][dP][dE][dW][dQ][dW][dL][dC][dA][dA]G[dK][dK]-NH2 (disulfide 3-12 (inferred)) [PIE7-GKK],19100,382,–
"G[dA][dC][dD][dY][dP][dE][dW][dQ][dW][dL][dC][dA][dA]G[dK] (disulfide 3-12 (inferred); also: three peptides attached directly to central scaffold TSAT, site not given here) [PIE7-GK short claw]",86.6,0.234,–
"C0C(PIE7-GK)3 (disulfide I:3-I:12, II:3-II:12 (inferred); also: trimer: two chain 1 copies joined via C-terminal Lys by zero length spacers to the C-terminal Lys of central chain 2) peptide 1: G[dA][dC][dD][dY][dP][dE][dW][dQ][dW][dL][dC][dA][dA]G[dK] peptide 2: G[dA][dC][dD][dY][dP][dE][dW][dQ][dW][dL][dC][dA][dA]G[dK][dK]",16.1,0.117,–
[dK]G[dA][dC][dD][dY][dP][dE][dW][dQ][dW][dL][dC][dA][dA] (disulfide 4-13 (inferred); also: dimer joined N- to N-terminus by zero length spacer) [N0N(PIE7)2],1090,0.801,–
Ac-[dK]G[dA][dC][dD][dY][dK][dE][dW][dQ][dW][dL][dC][dA][dA]-NH2 (disulfide 4-13 (inferred)) [PIE8],–,–,1680
"[dH][dP][dC][dD][dY][dP][dE][dW][dQ][dW][dL][dC][dE][dL]G[dK] (disulfide 3-12 (inferred); also: trimer, C-termini joined by PEG5 spacers) [C5C(PIE12)3]",2.77,–,–
Ac-[dK]G[dA][dC][dD][dY][dP][dE][dW][dQ][dW][dL][dC][dA][dA]G[dK]-NH2 (disulfide 4-13 (inferred)) [K-PIE7-GK],14800,–,–
Ac-[dH][dP][dC][dD][dY][dP][dE][dW][dQ][dW][dL][dC][dR][dL]G[dK]-NH2 (disulfide 3-12 (inferred)) [PIE14],1050,33.1,–
Ac-G[dA][dC][dD][dY][dP][dE][dW][dQ][dW][dL][dC][dA][dA]G[dK]-NH2 (disulfide 3-12 (inferred)) [PIE7-GK],15800,389,–
"G[dA][dC][dD][dY][dP][dE][dW][dQ][dW][dL][dC][dA][dA]G[dK] (disulfide 3-12 (inferred); also: three peptides attached to central scaffold LC-TSAT (six-atom spacer), site not given here) [PIE7-GK long claw]",20.6,0.124,–
[dK]G[dA][dC][dD][dY][dP][dE][dW][dQ][dW][dL][dC][dA][dA] (disulfide 4-13 (inferred); also: dimer joined N- to N-terminus by PEG5 spacer) [N5N(PIE7)2],1410,1.13,–
[dK]G[dA][dC][dD][dY][dP][dE][dW][dQ][dW][dL][dC][dA][dA] (disulfide 4-13 (inferred); also: dimer joined N- to C-terminus by PEG9 spacer) [N9C(PIE7)2],313,0.329,–
Ac-[dH][dP][dC][dD][dY][dP][dE][dW][dQ][dW][dL][dC][dK][dL]G[dK]-NH2 (disulfide 3-12 (inferred)) [PIE13],1470,41.3,–
Ac-[dK][dK]G[dA][dC][dE][dL][dL]G[dW][dE][dW][dA][dW][dL][dC][dA][dA]-NH2 (disulfide 5-16 (inferred)) [D10-p5],–,–,9510
Ac-[dH][dP][dC][dD][dY][dP][dE][dW][dQ][dW][dL][dC][dE][dL]G[dK]-NH2 (disulfide 3-12 (inferred)) [PIE12],578,–,–
Ac-[dH][dA][dC][dD][dY][dP][dE][dW][dQ][dW][dL][dC][dE][dL]G[dK]-NH2 (disulfide 3-12 (inferred)) [PIE15],1450,66.7,–
[dH][dP][dC][dD][dY][dP][dE][dW][dQ][dW][dL][dC][dE][dL]G[dK] (disulfide 3-12 (inferred); also: dimer joined C- to C-terminus by PEG5 spacer) [C5C(PIE12)2],14.2,–,–
[dH][dP][dC][dD][dY][dP][dE][dW][dQ][dW][dL][dC][dK][dL]G[dK] (disulfide 3-12 (inferred); also: dimer crosslinked via internal Lys with PEG5 linker) [PEG5-(PIE13)2],15.1,–,–
[dK]G[dA][dC][dD][dY][dP][dE][dW][dQ][dW][dL][dC][dA][dA] (disulfide 4-13 (inferred); also: dimer joined N- to C-terminus by zero length spacer) [N0C(PIE7)2],402,0.534,–
"[dK]G[dA][dC][dD][dY][dP][dE][dW][dQ][dW][dL][dC][dA][dA] (disulfide 4-13 (inferred); also: trimer, N-termini joined by PEG9 spacers) [N9N(PIE7)3]",220,0.25,–
G[dA][dC][dD][dY][dP][dE][dW][dQ][dW][dL][dC][dA][dA]G[dK] (disulfide 3-12 (inferred); also: dimer joined C- to C-terminus by PEG9 spacer on C-terminal Lys) [C9C(PIE7-GK)2],215,0.354,–
Ac-[dK]G[dA][dC][dD][dY][dP][dE][dW][dR][dW][dL][dC][dA][dA]-NH2 (disulfide 4-13 (inferred)) [PIE2],–,–,1320
Ac-[dK]G[dA][dC][dD][dY][dP][dE][dW][dR][dW][dL][dC][dA][dA][dA]-NH2 (disulfide 4-13 (inferred)) [PIE2-AAA],–,–,1440
[dK]G[dA][dC][dD][dY][dP][dE][dW][dQ][dW][dL][dC][dA][dA] (disulfide 4-13 (inferred); also: dimer joined N- to C-terminus by PEG5 spacer) [N5C(PIE7)2],300,0.575,–
